The text below walks through data of patent publication US11135163B2, “Peptide hydrogel properties and its applications” (Kansas State University Research Foundation, priority 2014, dated 2021).

One data set has as its system HeLa cells. Kind of data set: HeLa cell viability (CCK-8) in 3D h9e hydrogel. The following applies: 3-day treatment, various concentrations of camptothecin, in h9e hydrogel. The data set is classed as cell-based. The method, then:
Cell culture and drug efficacy/diffusion tests: HeLa cells were grown in the hydrogel in 3D. Aliquots of HeLa cells solution were added into […] hydrogel with DMEM containing 10% FBS with a final peptide concentration of 0, 0.25, 0.5 and 1 wt %. 100 μl of cell mixture solution (3×10^4 cells per well) was seeded into a 96-well culture plate (Becton Dickinson Labware, Franklin Lakes, N.J.) and placed in an incubator (Nuair, Playmouth, Minn.) in a humidified 5% CO2 atmosphere at 37° C. for about 30 min. After complete hydrogelation, 10 μl of DMEM containing 0, 50 uM, 100 uM, or 200 uM camptothecin was added on top of the hydrogel to obtain camptothecin concentrations of 0 μM, 3.125 μM, 6.25 μM, and 12.5 μM, respectively, upon total diffusion in the hydrogel. Then, 50 ul of DMEM was carefully added to the top of the hydrogel to prevent drying during long-term incubation. All measurements were made at least in triplicate, and the plates were incubated for 3 days. A CCK-8 assay was used to determine cell viability after each treatment. 10 μL of CCK solution was added to each well. After 4 h of incubation, the absorbance at 450 nm was collected on a microplate reader (mQuant, Bio-Tek) and corrected by subtracting the background signal from a wall containing only 160 ul DMEM containing 10% FBS. […]

Data set [1] in a line: Gelation test of ECM ligand built-in or blended hydrogels. The data set is classed as physicochemical. The following applies: 0.5% peptide solution triggered with 0.5% BSA solution, 37° C., 30 min. As to the method: In this Example, an ECM ligand RGD built-in peptide (i.e., FLIVI-GSII-GPGGDGPGGDGRGD (SEQ ID NO:69)) was formulated into a hydrogel at 0.5% peptide solution triggered with 0.5% BSA solution. Gelation test was performed at 37° C. for 30 min. Gel strength was about 500 Pa, similar as the regular h9e hydrogel (FIG. 18.). Peptide synthesis followed the same procedure described in Example V.
Rheology Measurements: The hydrogel samples were characterized for mechanical properties. Gelation was determined right after the peptide solution triggered using either metal ion (i.e., Ca++) or albumin proteins (i.e., BSA) using C-VOR 150 rheometer system at both room temperature and 37° C. following our previous procedure. The maximum gel strength after 24 hours was used as the gel strength. The hydrogel samples after 24 hours was used and loaded in the probe system, and examined at a single frequency (1 Hz) and steady shear strain (1%). For shear-thinning experiments, the samples were subjected to shear and then observe the strain of the storage (G′) and loss (G″) modulus as a function of time following our previous procedures.
Regular h9e peptide described in Example VI can be blended with ECM ligands and functional proteins. […]

Data set [2] in a line: Instantaneous gelation time sweep of peptide sequences 1, 3 and 4. Conditions: for final gel strength after 30 minute gelation time sweep: triggered with 100 mM CaCl2 solution (FIG. 12, 13). The format is physicochemical. As to the method:
Similar to the methods used in U.S. 2013/0018004. Hydrogels were prepared with peptide 1, 3, and 4 alone, or mixture of peptide sequence 1 and 4 at 1:1 ratio. Hydrogels were triggered by calcium ions and BSA alone or co-trigger (calcium ions+BSA).

With `CC[C@@]1(O)C(=O)OCc2c1cc1n(c2=O)Cc2cc3ccccc3nc2-1` [Camptothecin, reference compound], the HeLa cell viability entry with HeLa cells is recorded as “dose-dependent decrease in cell viability”.
In the case of “FLIVI-GSII-GPGGDGPGGDGRGD (FLIVIGSIIGPGGDGPGGDGRGD; FLIVI-GSII N-terminal extension; Derivative of spider flagelliform silk protein and a trans-membrane segment of subunit IV in the dihydropyridine sensitive human muscle L-type calcium channel with built-in ECM ligand) [SEQ ID NO:69]”, the Gel strength entry in data set [1] was “about 500 Pa”.
In the case of “FLIVIGSIIGPGVDPGGAD (Derivative of spider flagelliform silk protein and a trans-membrane segment of subunit IV in the dihydropyridine sensitive human muscle L-type calcium channel) [Sequence 4]”, in data set [2], the hydrogel formation entry is listed as “yielded a peptide hydrogel” and the “final gel strength after 30 minute gelation time sweep” value was found to be 496 Pa. Besides, the gel strength result in data set [2] (triggered with BSA) is “about 150 Pa”. For the same molecule, the gel strength result in data set [2] (triggered with calcium) is reported as “about 550 Pa”.
Regarding “FLIVIGSIIPGGGDGPGGD (Derivative of spider flagelliform silk protein and a trans-membrane segment of subunit IV in the dihydropyridine sensitive human muscle L-type calcium channel) [Sequence 3]”, in data set [2], the hydrogel formation entry is “yielded a peptide hydrogel” and the “final gel strength after 30 minute gelation time sweep” value was 196 Pa.
